The record followed here is patent US7378388B2, “Method of utilizing neurotrophins to manipulate reproductive capacity” (University of Medicine and Dentistry of New Jersey, priority 2001, dated 2008).

The test system of one assay is cumulus cells. The assay is described as follows: BDNF production and secretion by cultured cumulus cells (BDNF ELISA of culture medium). Type of assay: cell-based, human. To be noted: 10 μM forskolin, cumulus cells cultured 24 h, P=0.016. (In general: In an ELISA, binding on a coated surface is turned into a signal by an enzyme label.)
In assay [1] the test system is mouse oocytes. Kind of assay: Effect of NT-4/5 and NT-3 on in vitro maturation of mouse oocytes. Type of assay: cell-based. As for the experimental part:
Eighteen 4-5 week old female C57BL/6 mice (Taconic Labs, German Town, N.Y.) were given a single intraperitoneal injection of 7.5 IU PMSG (Sigma, St. Louis, Mo.). Five hundred thirty-six (536) immature oocytes were harvested 48 hours after gonadotropin injection. Cumulus cells were removed mechanically (27 gauge insulin needles) at room temperature. Immature oocytes were equally divided into control (n=218) and experimental (n=318) groups and cultured in 5% CO2 in air, 37° C. in Human Tubal Fluid (HTF, Conception Technologies, San Diego, Calif.) for 24 and 48 hours with 1 ng/ml (n=59), 10 ng/ml (n=98) and 100 ng/mI (n=11) of 10 NT-4/5 (Peprotech, Inc. Rocky Hill, N.J.) or 10 ng/ml (n=60) and 100 ng/ml (n=60) of NT-3 (Peprotech, Inc. Rocky Hill, N.J.) to examine the percentage of germinal vesicle breakdown. The percentage of polar body extrusion was also examined. Control oocytes (n=218) were cultured in HTF under the same conditions without addition of NT-4/5 (n=158) or NT-3 (n=60).

Assay [2] deals with mouse oocytes. Kind of assay: Effect of BDNF upon in vitro maturation of mouse oocytes. Type of assay: cell-based. To be noted: 100 ng/ml BDNF. As for the experimental part: Six (6) 4-5 week old female C57BL/6 mice (Taconic Labs, German Town, N.Y.) were given a single intraperitoneal injection of 7.5 IV PMSG (Sigma, St. Louis, Mo.). One hundred sixty (160) immature oocytes were harvested 48 hours after gonadotropin injection. Cumulus cells were removed mechanically (27 gauge insulin needles) at room temperature. Oocytes were equally divided into control and experimental groups. Immature oocytes (n-80) were incubated (5% CO2 in air, 37° C.) in Human Tubal Fluid (HTF, Conception Technologies, San Diego, Calif.) with 100 ng/ml BDNF (Peprotech, Inc. Rocky Hill, N.J.) Control oocytes (n=80) were cultured in HTF under the same conditions without addition of BDNF. […] (See FIG. 3).

Setting [3] is: 24 and 48 hours in culture, compared to controls.

From the text for cumulus cells: Cumulus cells, which are a mass of epithelial cells surrounding the ovum in the ovarian follicle, were removed from oocytes in preparation for IVF and were dissociated in hyaluronidase (100 IU/ml, Sigma Chemical Company, St. Louis, Mo.) then washed twice with HBSS. The resulting preparation of cumulus cells was of ninety-nine percent (99%) pure.
For the purpose of examining the regulation of BDNF expression by cAMP, cumulus cells were combined between two subjects for each experiment. […] The culture media was collected after 24 hours of culture for assay of BDNF.
BDNF levels were determined using commercially available BDNF E max® immumoassay system (Promega, Madison, Wis.). The ELISA's were performed according to the manufacture's protocol. Follicular fluid, granulosa cell culture media, oocyte or embryo culture media was added to a 96-well immunoplate pre-coated with human BDNF specific monoclonal antibody. The plate was incubated at room temperature for 2 hours with shaking. Anti-BDNF monoclonal antibody was used as the capture Ab and Anti-BDNF pAb was used as reporter Ab. After washing, the amount of specifically bound pAb was detected using a species-specific anti-IgY antibody conjugated to horseradish peroxidase (HRP) as a tertiary reactant. […] Absorbency was measured at 450 nm using a microplate reader (Model Vmax kinetic microplate reader; Molecular Devices). […]

For `C=C[C@@]1(C)CC(=O)[C@]2(O)[C@@]3(C)[C@@H](O)CCC(C)(C)[C@@H]3[C@H](O)[C@H](OC(C)=O)[C@@]2(C)O1` [Forskolin], the “increase of BDNF production” value in the assay with cumulus cells stood at 11 fold.

B1: neurotrophin-4/5 (protein, UniProt P34130 81-210, looked up)
Neurotrophin-4: GVSETAPASRRGELAVCDAVSGWVTDRRTAVDLRGREVEVLGEVPAAGGSPLRQYFFETRCKADNAEEGGPGAGGGGCRGVDRRHWVSECKAKQSYVRALTADAQGRVGWRWIRIDTACVCTLLSRTGRA
notes: neurotrophin, Trk B ligand (Peprotech)
For the molecule B1, the “mouse oocyte polar body extrusion” value in the assay with mouse oocytes [1] (1.0 ng/ml, 48 hours, p<0.05) was “significantly influenced”; with mouse oocytes [1] (10 ng/ml, 24 hours, <0.01) it was “significantly influenced”; with mouse oocytes [1] (10 ng/ml, 48 hours, p<0.01) it was “significantly influenced”; with mouse oocytes [1] (setting [3]) it was “significantly promoted”. The germinal vesicle breakdown entry in the assay with mouse oocytes [1] (setting [3]) is listed as “did not influence”.

B2: neurotrophin-3 (protein, UniProt P20783 139-257, looked up)
Neurotrophin-3: YAEHKSHRGEYSVCDSESLWVTDKSSAIDIRGHQVTVLGEIKTGNSPVKQYFYETRCKEARPVKNGCRGIDDKHWNSQCKTSQTYVRALTSENNKLVGWRWIRIDTSCVCALSRKIGRT
notes: neurotrophin, Trk C ligand (Peprotech)
As to B2, in the assay with mouse oocytes [1] (setting [3]), the germinal vesicle breakdown entry is given as “did not alter” and the “mouse oocyte polar body extrusion” value is given as “did not alter”.

B3: brain-derived neurotrophic factor (protein, UniProt P23560 19-247, looked up)
Neurotrophic factor BDNF …: APMKEANIRGQGGLAYPGVRTHGTLESVNGPKAGSRGLTSLADTFEHVIEELLDEDQKVRPNEENNKDADLYTSRVMLSSQVPLEPPLLFLLEEYKNYLDAANMSMRVRRHSDPARRGELSVCDSISEWVTAADKKTAVDMSGGTVTVLEKVPVSKGQLKQYFYETKCNPMGYTKEGCRGIDKRHWNSQCRTTQSYVRALTMDSKKRIGWRFIRIDTSCVCTLTIKRGR
notes: neurotrophin, soluble polypeptide growth factor, Trk B ligand (Peprotech)
Regarding B3, the “1st polar body extrusion” value in the assay on mouse oocytes [2] (20 hours, control 6.3%, p=0.017) is listed as 18.8%; with mouse oocytes [2] (24 hours, control 6.3%, p=0.01), 20%; in the assay on mouse oocytes [2] (48 hours, control 7.5%, p=0.013) it was 21.3%.
